# From publication PMC4137571 (Biomaterials, 2014)
# Several values for one entry are separate records, joined by “and”; a condition that tells them apart may be missing. Equal values may be shown once.
# Biological target: the molecule itself
# Assay: SEC
protein,measurement,value
HEV P^+ (modified protruding (P) protein of hepatitis E virus with C-terminal cysteine-containing peptide) (domain or fragment) PTPSPAPSRPFSVLRANDVLWLSLTAAEYDQTTYGSSTNPMYVSDTVTLVNVATGAQAVARSLDWSKVTLDGRPLTTIQQYSKTFYVLPLRGKLSFWEAGTTKAGYPYNYNTTASDQILIENAAGHRVAISTYTTSLGAGPTSISAVGVLAPHSALAVLEDTIDYPCDCRGDCFC,stoichiometry N,2 and 4
